The experiment addresses histone H3 K115C (UniProt P84233). Put plainly: cross-linking.

For the substance “histone H3 K115C (from UniProt P84233 2-136) (natural protein)”, the efficiency of crosslinking at H3 K115C (H3-H3’) turned out to be 80%.

Values taken from PMC3428624.
